Experiments:
[1] = molecular target: heavy-chain (HC-) FSAP (residues 24-291) (human) (UniProt Q14520); assay: MST
[2] = molecular target: the molecule itself; assay: dynamic light scattering

Row | Molecule | Kd [1] [nM] | binding result [2]
1 | Histone-H1 (natural protein) | 2000 | 
2 | heavy-chain (HC-) FSAP (residues 24-291) (domain or fragment, labelled with the Monolith protein labelling kit RED-NHS (in the MST only)) FSLMSLLESLDPDWTPDQYDYSYEDYNQEENTSSTLTHAENPDWYYTEDQADPCQPNPCEHGGDCLVHGSTFTCSCLAPFSGNKCQKVQNTCKDNPCGRGQCLITQSPPYYRCVCKHPYTGPSCSQVVPVCRPNPCQNGATCSRHKRRSKFTCACPDQFKGKFCEIGSDDCYVGDGYSYRGKMNRTVNQHACLYWNSHLLLQENYNMFMEDAETHGIGEHNFCRNPDADEKPWCFIKVTNDKVKWEYCDVSACSAQDVAYPEESPTEP |  | binds

From article doi:10.1101/2025.01.07.631702 (bioRxiv, 2025)
